Results published in US10973880B2, “Compositions and methods for treating pulmonary hypertension” (Acceleron Pharma Inc., priority 2016, dated 2021).

Legend:
[1] = target: T1, GDF11 (Homo sapiens, UniProt O95390); assay: A-204 reporter gene assay, pGL3(CAGA)12 luciferase; format: cell-based; conditions: Example 13
T1 sequence (O95390 299-407): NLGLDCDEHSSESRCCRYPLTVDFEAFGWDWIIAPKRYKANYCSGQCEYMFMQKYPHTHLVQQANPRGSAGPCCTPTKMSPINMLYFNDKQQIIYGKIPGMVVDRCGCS
Source text: Day 1: Split A-204 cells into 48-well plate. […]
In addition, an A-204 Reporter Gene Assay was used to evaluate the effects of ALK4-Fc:ActRIIB-Fc heterodimer and ActRIIB-Fc:ActRIIB-Fc homodimer on signaling by activin A, activin B, GDF11, GDF8, BMP10, and BMP9. Cell line: Human Rhabdomyosarcoma (derived from muscle). Reporter vector: pGL3(CAGA)12 (as described in Dennler et al, 1998, EMBO 17: 3091-3100). The CAGA12 motif is present in TGFβ responsive genes (PAI-1 gene), so this vector is of general use for factors signaling through Smad2 and 3. An exemplary A-204 Reporter Gene Assay is outlined below. • Day 1: Split A-204 cells into 48-well plate. • Day 2: A-204 cells transfected with 10 ug pGL3(CAGA)12 or pGL3(CAGA)12(10 ug)+pRLCMV (1 ug) and Fugene. • Day 3: Add factors (diluted into medium+0.1% BSA). Inhibitors need to be pre-incubated with Factors for about one hr before adding to cells. About six hrs later, cells are rinsed with PBS and then lysed.
Following the above steps, a Luciferase assay was performed.

[2] = target: T2, BMP6 (Homo sapiens, UniProt P22004); assay: Biacore-based binding assay, receptor captured with anti-Fc antibody
T2 sequence (P22004 375-513): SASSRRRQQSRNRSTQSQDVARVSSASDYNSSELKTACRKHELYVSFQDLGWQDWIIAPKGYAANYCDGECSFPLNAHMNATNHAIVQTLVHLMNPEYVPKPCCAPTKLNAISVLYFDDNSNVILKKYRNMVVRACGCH
Procedure: (§1) A Biacore™-based binding assay was used to compare ligand binding selectivity of the ALK4-Fc:ActRIIB-Fc heterodimeric complex described above with that of ActRIIB-Fc and ALK4-Fc homodimer complexes. The ALK4-Fc:ActRIIB-Fc heterodimer, ActRIIB-Fc homodimer, and ALK4-Fc homodimer were independently captured onto the system using an anti-Fc antibody. Ligands were injected and allowed to flow over the captured receptor protein. Results are summarized in the table below, in which ligand off-rates (kd) most indicative of effective ligand traps are denoted in bold font.

[3] = target: T3, BMP9 (Homo sapiens, UniProt Q9UK05); assay: as above
T3 sequence (Q9UK05 320-429): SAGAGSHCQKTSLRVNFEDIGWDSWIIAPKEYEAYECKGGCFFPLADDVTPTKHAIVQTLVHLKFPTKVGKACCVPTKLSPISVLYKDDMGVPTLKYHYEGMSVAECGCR
Procedure: as §1

[4] = target: T1, GDF11; assay: as above
Procedure: as §1

[5] = test system: rat model of pulmonary arterial hypertension (PAH), monocrotaline (MCT) induced; assay: monocrotaline rat model of pulmonary arterial hypertension; format: in vivo, Sprague Dawley rats
Procedure: The effects of an ActRIIA-mFc fusion protein (ActRIIA-mFc homodimer as described in Example 1), an ALK4-Fc-ActRIIB-Fc heterodimer (as described in Examples 12 and 13), and sildenafil (a phosphodiesterase-5 inhibitor approved for the treatment of PAH) were examined in a rat model of pulmonary arterial hypertension (PAH). In this model, Sprague Dawley rats received a […] injection of monocrotaline (MCT) to induce PAH 24 hours prior to start of therapy.
Rats were separated into different treatment groups (10 mice per group): 1) treatment with MCT (60 mg/kg administered i.p. as a single dose at day 1 of study) and Tris buffered saline (i.p. as 1 ml/kg, every three days) (vehicle treatment group), 2) treatment with an ActRIIA-mFc polypeptide (10 mg/kg administered i.p. every three days) and MCT (60 mg/kg administered i.p. as a single dose at day 1 of study), 3) treatment with an ALK4-Fc:ActRIIB-Fc heterodimer (10 mg/kg administered i.p. every three days) and MCT (60 mg/kg administered i.p. as a single dose at day 1 of study), 4) treatment with sildenafil (30 mg/kg administered orally twice daily) and MCT (60 mg/kg administered i.p. as a single dose at day 1 of study), and 5) control rats (Tris buffered saline administered i.p. as 1 ml/kg, every three days). Rats were treated for 28 days. Body weights were recorded prior to first dose on Day 1 and then weekly throughout the study.
On day 28, rats were anesthetized by an intraperitoneal injection of ketamine/xylazine (80/10 mg/kg). An incision was made in the neck, and a jugular vein was isolated and ligated anteriorly. A fluid-filled pressure catheter was introduced into the right jugular vein to measure pulmonary artery pressure (PAP). Another incision was made in the inguinal region, and femoral artery was isolated and ligated anteriorly. A Millar pressure catheter was introduced into a femoral artery to measure systolic arterial pressure, diastolic pressure, and heart rate. Mean arterial pressure and right PAP were monitored using the Notocord HEM (Croissy sur Seine, Frnace) v3.5 data capture system for approximately 5-10 minutes until stable measurements were obtained. During the measurements, rats were maintained at approximately 37° C. on a heating pad and body temperature was monitored throughout the procedure with a rectal temperature probe. At the conclusion of the procedure, rats were euthanized, and the hearts and lungs were removed. The entire heart was weighed. Next, the atria were removed and the left ventricle with septum (LV+S) was separated from the right ventricle (RV). The ventricles were weighed separately. Hypertrophy was assessed, in part, by calculating RV/LV+S. The lungs were also weighed.
Similar trends were observed on vessel muscularity based on histopathologic scoring. After staining tissue samples to detect αSMA/elastin, 100 pulmonary arterioles, between 10 μm and 50 μm in size, per animal were categorized as non-muscularized, partially muscularized, or completely muscularized. Pulmonary arterioles from vehicle treated rats were determined to be 62.3% completely muscularized, 36.4% partially muscularized, and 1.4% non-muscularized. […] Histopathological scoring of smooth muscle hypertrophy of pulmonary arterioles were also recorded as follows: 0 (normal), 1 (minimal), 2 (mild), 3 (moderate), or 4 (marked).

B1: ALK4-Fc:ActRIIB-Fc heterodimer: heteromeric complex of extracellular domains of human ActRIIB and human ALK4, each separately fused to an Fc domain with a linker (protein)
chain 1: SGPRGVQALLCACTSCLQANYTCETDGACMVSIFNLDGMEHHVRTCIPKVELVPAGKPFYCLSSEDLRNTHCCYTDYCNRIDLRVPSGHLKEPEHPSMWGPVE
chain 2: GRGEAETRECIYYNANWELERTNQSGLERCEGEQDKRLHCYASWRNSSGTIELVKKGCWLDDFNCYDRQECVATEENPQVYFCCCEGNFCNERFTHLPEAGGPEVTYEPPPTAPT
modifications: left off: a dimerising Fc or GST; small tags and cut ends
notes: heteromeric complex of extracellular domains of human ActRIIB and human ALK4, each separately fused to an Fc domain with a linker
[1]
  inhibition of GDF11 signaling: potent inhibitors
[2]
  Kd: 2.7 nM
  ka, BMP6: 2e+06 M⁻¹ s⁻¹
  kd, BMP6: 0.0055 s⁻¹
[3]
  Kd: 3.4 nM
  ka, BMP9: Transient*
  kd, BMP9: Transient*
[4]
  ka, GDF11: 3.8e+07 M⁻¹ s⁻¹
  kd, GDF11: 0.00011 s⁻¹
[4]; † = very low signal
  Kd: 0.003 nM
[5]; 28 days, compared to monocrotaline treated rats, proteins 10 mg/kg i.p. every three days, sildenafil 30 mg/kg orally twice daily
  improvement in body weight: +5.1%
[5]; day 28, RV/LV+S, compared to monocrotaline treated rats
  decrease of right heart hypertrophy: 39.6%
[5]; day 28, compared to monocrotaline treated rats
  decrease of lung weight: 19.0%
[5]; day 28, compared to monocrotaline treated rats, same dosing
  reduction of elevated PAP: 44.6%
[5]; monocrotaline-induced model
  effect in reducing vascular muscularization compared with sildenafil: greater effect
